Article PMC10499821

Biological target: Nsp5 (SARS-CoV-2) (UniProt P0DTD1)
Test: fluorescence polarisation

B1: DLG3_(577–592) (peptide)
peptide: TVKFHARTGMIESNR
Which Kd does the source give for B1 here?
The Kd was 7 µM.

B2: SHROOM2_(403–417) (peptide)
peptide: GASSRLQASLSSSDV
With B2 as the binder, how does the Kd read?
Its Kd is 280 µM.
